From the nanobody polyreactivity screen of Harvey et al. (2022)

Test: yeast display, Sf9 membrane polyspecificity reagent, FACS + sequencing; frameworks hold sequencing errors
Procedure, shortened: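 Nanobodies from a synthetic yeast display library (Saccharomyces cerevisiae BJ5465), induced 36–48 hours with galactose, were stained 1 hour at 4 °C with 10% biotinylated, detergent-solubilized Sf9 membrane reagent, enriched on streptavidin microbeads, then FACS-sorted. Anti-HA (expression) and streptavidin (reagent binding) fluorescence set low and high (top ~1%) gates. Polyreactivity labels come from the gate of origin. Genes were colony-PCR amplified, MiSeq 2 × 250 sequenced and filtered by CDR length.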

| Sequence | polyreactivity (PSR sort gate) |
| --- | --- |
| QVQLGESGGGLVQAGGSLRLSCAASGFTFRIYTMGWYRQAPGKERELVAAISSRGGSTYYADSVKGRFTISRDNAKNTVYLQMNSLKPEDTAVYYCAASGRVYSSGYDYWGQGTQVTVSS | high polyreactivity |
| QVQLVESGGGLVQAGGSLRLSCAASGRTLLSPNAMGWYRQAPGKARELVAVISWSDGSTYYADSVKGRFTISRDNANNTVYLQMNSLKPEDTAVYYSAASDPFEASQYKYDYWGQGTQVTVSS | low polyreactivity |
| QVQLVESGGGLVQAGGSLRLSCAASGRTFYGYAMGWYRQAPGKERELVAAISRSGGRTYYADSVKGRFTISRDNAKNTVYLQMNSLKPEDTAVYYCAAYSVYASPDDYWGQGTQVTVSS | high polyreactivity |
| QVQLVESGGGLVQAGGSLRLSCAASGYTFKRNDMGWYRQAPGKERELVAAISKSGGSTYYADSVKGRFTISRDNAKNTVYLQMNSLKPEDTAVYYCPGPLPYYGQYDYWGQGTQVTVSS | low polyreactivity |
| QVQLLESGGGLVQAGGSLRLSCAASGSIFYPYALGWYRQAPGKERELVAGISRSGASTYYADSVKGRFTISRDKAKNTVYLQMNSLKPEDTAVYYCAADDWTRNYWGQGTQVTVSS | low polyreactivity |
| QVQLVESGGGLVQAGGSLRLSCAASGRTFYLYAMGWYRQAPGKERELVDTITESVGNTYYADSVKGRFTISRDNAKNTVYLQMNSLKPEDTAVYYCAATYKYYLYQPKTLFREGDYWGQGTQVTVSS | low polyreactivity |
| QVQLVESGGGLVQAGGSLRLSCAASGRILYVNAMGWYRQAPGKERELVAAISWRGGRTYYADSVKGRFTISRDHAKNTVYLQMNSLKPEDTAVYYCAARARGGYQRDYWGQGTQVTVSS | high polyreactivity |
| QVQLVESGGGLVQAGGSLRLSCAASGRTLIYYAMGWYRQAPGKERELVAAISSSGTSTYYADSVKGRFTISRDNAKNTVYLQMNSLKPEDTAVYYCAADGRTLGRRYYYWGQGTQVTVSS | high polyreactivity |
| QVQLVDSGGGLVQAGGSLRLSCAASGITIVYYAMGWNRQAPGKERELVAAITRGANTYYADSVKGRFTISRDNAKNTVYLQMNSLKPEDTAVYYCAADGWVGAWWYVLDVRYDYWGQGTQVTVSS | low polyreactivity |
| QVQLVESGGGLVQAGGSLRLSCAASGYIFKGNVMGWYRQAPGKERELVAAISSSGGRTYYADSVKWRFTISRDNAKNNVYLQMYSLKPEDTAVYYCNTKHRTKPTGPVDYWGQGTQVTVSS | high polyreactivity |
| QVQLVDSGGGLVQAGGSLRLSCAASGRTFTIYAIGWYRQAPGKEREFVASITGSDGSTYYADSVKGRFTISRDNAKNTVYLQMNSLKPEDTAVYYCAAATSSAYDYWGQGTQVTVSS | low polyreactivity |
| QVQLVESGGGLVQAGGSLRLSCAASGRILYRYAMGWSRQAAGTEREVVAAISRSGGDTYYADSVKGRFTISRDNAKNTVYLQMNSLKPEDTAVYYCAGYSSWSGGLGGVYYWGQGTQVTVSS | low polyreactivity |
| QVQLVESGGGLVQAGGSLRLSCAASASIFDGYAMGWYRQAPGKERELVAAISKGGTRTYYADSVKGRFTISRDNAKNTVYLQMNSLKPEDSSVYYCNAYYRREPDDGDYDYWGQGTQVTVSS | high polyreactivity |
| QVQLVESGGGLVQAGGSLRLSCAASGSTFPFYAMGWYRQAPGKEREFVAVISSSGGSTYYADSVKGRFTISRDNAKNTVYLQMNSLKPEDTAVYYCARSYPGRWYDYWGQGTQVTVSS | high polyreactivity |
| QVQLVESGGGLVQAGGSLRLSCAASGSTFGPNTMGWYRQAPGKERELVAAITSTGSTYYADSVKGRFTISRDNGKNTVYFEMNILLPEDTAVYYCAARRYYGVYYAFYYWGQGTQVTVSS | high polyreactivity |
| QVQLVESGGGLVQAGGSHRLSCAASGFTSAVNTMGWYRQAPGKEREFVASISRNGGSTYYADSVKGRFTITRDNAKNTVYLQINSLKPEDTAVYYCNTRVPNYAFRRSRYDYWGQGTQVTVSS | high polyreactivity |
| QVQLVESGGGLVQAGGSLRLSCAASGSTFWVNAMGWYRQAPGKERELVAAISERGGRTYYADSVKGRFTISRDNAKNTVYLQMNSLKPEDTAVYYCNRVTRSNVDYWGQGTQVTVSS | high polyreactivity |
| QVQLVESGGGLVQAGGSLRLSCAASGSILQVYAMGWYRQAPGKERELFADINYTTGSTYYADSVKGRFTISRDNAKNTVYLQMNSLKPEDTAVYYCAKDFGFQSDSWGQGTQVTVSS | low polyreactivity |
| QVQLGESGGGLVPAGGSLRLSCAASGGTFKTNAMGWYRQAPGKERELVAAITGSGTSTYYADSVKGRFTISRDNAKNTVYLHMNSLKPEDTAVYYCAADNLYHPGIGDDYWGQGTQVTVSS | low polyreactivity |
| QDQLVESGRGLVEAGGSLRLSCAASGRILGRYAMGWNRQAPGKERELVAAISRSGGTTYYADSVKGRFTISRDNAKNTVYLEMNSLKPEDTAVYDCARLRVYAAVYDYWGQGTQVTVSS | high polyreactivity |
| QVQLVESGGGLVQAGGSLRLSCAASGSTFSLYAMGWYRQAPGKERELVAAISSSGGSTYYADYVKGRFTISRDNAKNTVYLQMNSLKPEDTAVYYCAAYRVGSYDYWGQGTQVTVSS | high polyreactivity |
| QVQLVESGGGLVQAGGSLRLSCAASGSIQYYAMGWYRQAPGKERELVAAIRFSGGRTYYADSVKGRFTISRDNAKNTVYLQMNSLKPEDTAVYYCAAYRSPRRSGAPSQGKFDYWGQGTQVTVSS | low polyreactivity |

| Sequence | polyreactivity (PSR sort gate) |
| --- | --- |
| QDQLVESGGGLVQAGGSLRLRCAASGSIFGGYAMGWYRQAPGKERELVDAISSGGTTNYADSVMGRFTISRDNAKNTVYLQMNSLKQEDRAVYYCAREYGTTYQSVQVKFIQLDYWGQGTLVTVSS | low polyreactivity |
| QVQLVESGGGLVQAGGSLRLSCAASGLTFSGYAMGWYRQAPGKERELVAAISWRGGSTYYADSVKGRFTISRDNAKNTVYLQMNSLKPEDTAVYYCNRARVQDYPYYYWGQGTQVTVSS | high polyreactivity |
| QVQLVESGGGLVQAGGSLRLSCAASGFTFPYYAMGWYRQAPGKERELVAAITYSGDSTYYADSVKGRFTISRDNAKNTVYLQMNSLKPEDTAVYYCNVTPDWAVTDDYWGQGTQVTVSS | low polyreactivity |
| QDQLVESGGGLVQAGGSHRLSCAASGFISDKNAMGWYRQAPRKERELVAAISQRGDRTYYADSVKGRFTISRDNAKNTVYLQMNSLKPEDTAVYYCGYLVRYHHLRYWGQGTQVTVSS | high polyreactivity |
| QVQLVESGGGLVQAGGSLRLSCAASGSIFGYYAMGWYRQAPGKEREFVAAIRSSGGSTYYADSVKGRFTISRDNAKNTVYLQMNSLKPEDTAVYYCAAGGYPTFFKYGYWGQGTQVTVSS | high polyreactivity |
| QVQLVESGCGLVHAGGSLRLSCAASGRILRYYAMGWYGQAPGKDRELVAVITSSDGSTYYADSVKGRITISRDNAMNTVYLQMNSLKPEDTAVYYCAAAPLWRLASWWDPYRRYDYWGQGTQVTVSS | low polyreactivity |
| QVQLVESGGGLVQAGGSLRLSCAASGFTFFIYAMGWYSQAPGKEREFVAAITGSGGSTYYADSVKGRFTISRDNAKNTVYLQMNSLKPEDTAVYYCNTAGYDYYSTQAYDYWGQGTQVTVSS | high polyreactivity |
| QVQLVESGGGLVQAGGSLRLSCAASGRTFVGNAMGWYRQAPGKERELVAVITGSGARTYYADSVKGRFTISRDNAKNTVYLQMNSLKPEDTAVYYCAAAGYSGQYRSYYWGQGTQVTVSS | high polyreactivity |
| QVQLVESGGGLVQAGGSLRLSCAASGYTFYYYAMGWYRQAPGKERELVAGISGRGGSTYYADSVKGRFTISRDNAKNTVYLQMNSLKPEDTAVYYCAATSPRAGTRRYEYWGQGTQVTVSS | high polyreactivity |
| QVQLVESGGGIVQAGGSLRLSCAASGSTLHSYALGWYRQAPGKERELVAAISFRGGSTYADSVKGRFTISRDNAKNTVYVQMNSLKPEDTAVYYCATRRTRADWYIVGYDYWGQGTQVTVSS | low polyreactivity |
| QVQLVESGGGLVQAGGSLRLSCAASGSTFFYYAMGWYRQAPGKERELVATIRGSAGRTYYADSVKGRFTISRDNAKNTVYLQMNSLKPEDTAVYYCARRYWPGSAYWIYDYWGQGTQVTVSS | high polyreactivity |
| QVQLVESGGGLVQAGGSLRLSCAASGSTFTKYAMGWYRKAPGKERELVAAITYSGGRTYYADSVKGRFTISRDNAKNTVYLQMNSLKPEDTAVYYCAAATYAGKPMEYWGQGTQVTVSS | high polyreactivity |
| QVQLVESGGGLVQAGGSLRLSCAASGIIFVENAMGWYRQAPGKERELVAAISWDGGSTYYADSVKGRFTISRDNAKNTVYLQMNSLKPEDTAVYYCAADLTISYSQEYYYWGQGTQVTVSS | low polyreactivity |
| QVQLVESGGGLVQAGGSLRLSCAASGNLFYGYAMGWYRQAPGKERELVAAISGSSTYYADSVKGRFTISRDNAKYTVYLQMNSLKPEDTAVYYCAVPQYLYLQAGHGFRYYYWGQGTQVTVSS | high polyreactivity |
| QVQLVESGGGLVQAGGSLRLICAASGRIIRYYAMGWYRQAPGKERELVAITSSGGRTYYADSVKGRFSISRDNAKNTVYLQMNSLKPEDTAVYYCAVDSHCPGRGERFIRLDYWGQGTQVTVSS | low polyreactivity |
| QVQLVESGGGLVQAGGSLRLSCAASGITFVWNAMGWYRQAPGKERELVATISRGGVRTYYADSVKGRFTISRDNAKNTVYLQMNSLKPEDTAVYYCAADGSYVHWEYGYWGQGTQGTVSS | low polyreactivity |
| QVQLVESGGGLVQAGGSLRLSCAASGRIFYSYGMGWYRQAPGKERELVATISIGGSTNYADSVKGRFTISRDNAKNTVYLQMNSLKPEDTAVYYCAARGGTLYSTRSYGYWGQGTQVTVSS | high polyreactivity |
| QVQLVESGGGLVQAGGSLRLSCAASGRTLYVYTMGWYRQAPGKERELVASISSGVGTNYADSVKGRFTISRDNAKNTVYLQMNSLKPEDTAVYYCAARFRYYRHYYWGQGTQVTVSS | high polyreactivity |
| QVQLVESGGGLVQAGGSLRLSCAASGFIFYYYAMGWYRQAPGKERELVAVLAVSGSSTYYADSEKGRFTISRDNAKNIVFLQKNSLKPEDTAVYYCNADFWPYTGKYDYWGQGTQVTVSS | low polyreactivity |
| QVQLVESGGGLVQAGGSLRLSCAASGSIFDSNAMGWYRQAPGKERELVAAMDDAGATTYYADSVQGRFTISRDNAKNTVYLQMNSLKPEDTAVYYCAAETYTGSLAYYRVYYYWGQGTQVTVSS | low polyreactivity |
| QVQLVESGGGLVQAGGSLRLSCAASGRIFYWYAMGWYRQAPGKERELVATINSGGSTTYADSVKARFTISRDNAKNTVYLQMNSLKPEDTAVYYCARQRTVKKYYNWGQGTQVTVSS | high polyreactivity |
